Laboratory results published in the supplement of paper PMC7877785.
± gives the uncertainty stated by the source.

Assay: self-splicing fitness, log relative to wild type (ln ratio); higher = more splicing; Tetrahymena group I intron in knt gene, E. coli kanamycin selection, DiMSum; sequences stand for … in CUCUCU…GGAGGGAAAAGUUAUCAGGCAUGCACCUGGUAGCUAGUCUUUAAACCAAUAGAUUGCAUCGGUUUAAAAGGCAAGACCGUCAAAUUGCGGGAAAGGGGUCAACAGCCGUUCAGUACCAAGUCUCAGGGGAAACUUUGAGAUGGCCUUGCAAAGGGUAUGGUAAUAAGCUGACGGACAUGGUCCUAACCACGCAGCCAAGUCCUAAGUCAACAGAUCUUCUGUUGAUAUGGAUGCAGUUCACAGACUAAAUGUCGGUCGGGGAAGAUGUAUUCUUCUCAUAAGAUAUAGUCGGACCUCUCCUUAAUGGGAGCUAGCGGAUGAAGUGAUGCAACACUGGAGCCGCUGGGAACUAAUUUGUAUGCGAAAGUAUAUUGAUUAGUUUUGGAGUACUCGUGGUCG
Outline: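 Fitness was computed with DiMSum as the error-weighted combination of replicate fold changes, kanamycin versus none, each normalised to wild type. The library randomised all eight intron nucleotides of the P1ex region, with the intron placed in the knt kanamycin-resistance gene on pET-22b(+) in E. coli BL21(DE3). Six replicate transformations were grown overnight at 37°C or 30°C on LB agar with or without 25 μg/mL kanamycin, plus 100 μg/mL carbenicillin, 50 μM IPTG and 0.2% rhamnose. Pooled colonies were amplicon-sequenced on an Illumina HiSeq 2500.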

Row | Sequence | self-splicing fitness (ln) (30 °C) | self-splicing fitness (ln) (37 °C)
1 | ACAAAGCAAUAUUACGAUAG | -3.47 ± 0.17 | -2.21 ± 0.19
2 | CCGCAGCAAUAUUACGCUAC | -4.14 ± 0.28 | -2.37 ± 0.23
3 | AAAGAGCAAUAUUACGACGA | -2.27 ± 0.23 | -2.57 ± 0.25
4 | GACGAGCAAUAUUACGCUGA | -3.74 ± 0.35 | -1.95 ± 0.24
5 | GCAUAGCAAUAUUACGAUCG | -1.04 ± 0.11 | -0.34 ± 0.12
6 | AUCCAGCAAUAUUACGCCAU | -3.28 ± 0.21 | -1.27 ± 0.14
7 | GCGGAGCAAUAUUACGUGCA | -2.52 ± 0.29 | -0.813 ± 0.18
8 | AUUAAGCAAUAUUACGAUUA | -0.777 ± 0.13 | -0.308 ± 0.13
9 | AAUUAGCAAUAUUACGCGCU | -0.647 ± 0.13 | -0.214 ± 0.2
10 | UAGCAGCAAUAUUACGAGCC | -2.62 ± 0.23 | -1.9 ± 0.3
11 | ACGGAGCAAUAUUACGUACG | -2.38 ± 0.45 | 
12 | UGGAAGCAAUAUUACGCACU | -0.488 ± 0.12 | -0.124 ± 0.15
13 | UUUUAGCAAUAUUACGAAAG | -2.72 ± 0.2 | -0.437 ± 0.15
14 | GUACAGCAAUAUUACGUUGU | -3.27 ± 0.15 | -1.99 ± 0.15
15 | UCACAGCAAUAUUACGACCA | -1.89 ± 0.21 | 0.0251 ± 0.21
16 | GUUGAGCAAUAUUACGAGAU | -2.7 ± 0.19 | -2.81 ± 0.31
17 | GGUUAGCAAUAUUACGGAAU | -2.21 ± 0.25 | -1.01 ± 0.25
18 | GCAGAGCAAUAUUACGACUC | -1.83 ± 0.15 | -1.38 ± 0.17
19 | CGGGAGCAAUAUUACGAACU |  | -1.25 ± 0.45
20 | CGCAAGCAAUAUUACGAGCA | -0.102 ± 0.1 | 0.368 ± 0.14
21 | GACAAGCAAUAUUACGAGAC | -2.95 ± 0.27 | -2.29 ± 0.27
22 | UUGUAGCAAUAUUACGAUAA | -1.44 ± 0.11 | -0.33 ± 0.17
23 | AACCAGCAAUAUUACGUGUC | -3.29 ± 0.094 | -1.42 ± 0.075
24 | CUGAAGCAAUAUUACGUCAG | -4.14 ± 0.2 | -1.46 ± 0.14
25 | UUUCAGCAAUAUUACGGAAA | -2.7 ± 0.47 | -2.07 ± 0.22
26 | ACCAAGCAAUAUUACGAUCC | -1.83 ± 0.093 | -0.778 ± 0.14
27 | UAGAAGCAAUAUUACGUUUU | -3.58 ± 0.17 | -2.85 ± 0.18

Row | Sequence | self-splicing fitness (ln) (30 °C) | self-splicing fitness (ln) (37 °C)
28 | AAAGAGCAAUAUUACGAAGC | -1.67 ± 0.21 | -2.04 ± 0.47
29 | CCCCAGCAAUAUUACGCCCU | -4.24 ± 0.39 | -1.98 ± 0.28
30 | CCCAAGCAAUAUUACGACAG | -4.22 ± 0.15 | -2.39 ± 0.12
31 | AAAUAGCAAUAUUACGGCUG | -0.833 ± 0.15 | -0.0574 ± 0.18
32 | GGGUAGCAAUAUUACGUGAU | -2.64 ± 0.19 | -0.239 ± 0.18
33 | UCUAAGCAAUAUUACGCGAC |  | -2.84 ± 0.36
34 | GUUAAGCAAUAUUACGCCGC | -3.02 ± 0.21 | -2.03 ± 0.31
35 | AAAUAGCAAUAUUACGCCGG | -1.6 ± 0.13 | -0.713 ± 0.15
36 | CACAAGCAAUAUUACGUGUA | -3.53 ± 0.13 | -1.78 ± 0.093
37 | ACCUAGCAAUAUUACGGGGG | -3.84 ± 0.2 | -1.59 ± 0.17
38 | ACACAGCAAUAUUACGAUAC | -2.58 ± 0.26 | -2.69 ± 0.25
39 | GCUUAGCAAUAUUACGGUCU | -0.834 ± 0.083 | -0.0218 ± 0.11
40 | GAGGAGCAAUAUUACGGUUU | -2.44 ± 0.13 | -2.28 ± 0.16
41 | AUAAAGCAAUAUUACGGGGA | -1.96 ± 0.14 | -1.4 ± 0.18
42 | UUAAAGCAAUAUUACGAAAU | -3.49 ± 0.3 | -2.12 ± 0.24
43 | UAAUAGCAAUAUUACGACUU | -0.84 ± 0.1 | -0.376 ± 0.094
44 | UACCAGCAAUAUUACGGCGU | -0.619 ± 0.055 | -0.341 ± 0.072
45 | GAGAAGCAAUAUUACGGGGC | -3.04 ± 0.19 | -3.05 ± 0.23
46 | CGUUAGCAAUAUUACGCGCC | -2.21 ± 0.39 | -1.05 ± 0.27
47 | AACAAGCAAUAUUACGCACG | -1.31 ± 0.18 | -0.33 ± 0.18
48 | CUACAGCAAUAUUACGUCUU | -4.14 ± 0.24 | -3.48 ± 0.25
49 | AUGCAGCAAUAUUACGUUGG | -2.96 ± 0.098 | -2.33 ± 0.17
50 | GUGAAGCAAUAUUACGCAAC | -2.59 ± 0.17 | -2.08 ± 0.22
51 | AAGCAGCAAUAUUACGUACU | 0.254 ± 0.1 | 0.172 ± 0.11
52 | GUAGAGCAAUAUUACGAGAC | -3.02 ± 0.42 | 
53 | UCUGAGCAAUAUUACGGAAA | -3.08 ± 0.18 | -1.64 ± 0.15
54 | GUAUAGCAAUAUUACGACCG | -2.97 ± 0.35 | -0.999 ± 0.26

Row | Sequence | self-splicing fitness (ln) (30 °C) | self-splicing fitness (ln) (37 °C)
55 | UUACAGCAAUAUUACGAAAC | -2.85 ± 0.33 | -2.49 ± 0.41
56 | AUAGAGCAAUAUUACGGCAA | -1.97 ± 0.21 | -0.382 ± 0.17
57 | GACAAGCAAUAUUACGUAGA | -2.31 ± 0.092 | -0.707 ± 0.097
58 | ACCCAGCAAUAUUACGCCCG | -2.3 ± 0.18 | -1.22 ± 0.19
59 | CGAAAGCAAUAUUACGAGGG | -3.66 ± 0.14 | -2.17 ± 0.13
60 | UCCAAGCAAUAUUACGACCU | -2.9 ± 0.26 | -1.95 ± 0.26
61 | UGCGAGCAAUAUUACGACCU | -0.697 ± 0.18 | -0.146 ± 0.2
62 | ACACAGCAAUAUUACGCUCA | -0.416 ± 0.087 | -0.203 ± 0.093
63 | ACACAGCAAUAUUACGAAGC | -4.18 ± 0.22 | -2.8 ± 0.21
64 | UUGGAGCAAUAUUACGUGUA | -3.69 ± 0.29 | 
65 | UAAAAGCAAUAUUACGCCAC |  | -2.02 ± 0.36
66 | GUUAAGCAAUAUUACGAUAA | -1.48 ± 0.18 | -0.923 ± 0.2
67 | UGGUAGCAAUAUUACGGGAC |  | -2.89 ± 0.27
68 | ACCAAGCAAUAUUACGCUGG | -2.75 ± 0.15 | -2.72 ± 0.21
69 | GUCGAGCAAUAUUACGCUGC |  | -1.97 ± 0.48
70 | UCAUAGCAAUAUUACGGCUU |  | -1.48 ± 0.26
71 | AAGAAGCAAUAUUACGCCGA | -0.879 ± 0.12 | -0.757 ± 0.15
72 | UUCCAGCAAUAUUACGACUA | -0.435 ± 0.097 | -0.117 ± 0.085
73 | UGUCAGCAAUAUUACGGUAC | -4.07 ± 0.46 | -1.38 ± 0.17
74 | CCACAGCAAUAUUACGAUGA | -1.9 ± 0.11 | -1.77 ± 0.12
75 | CUCUAGCAAUAUUACGCAAU |  | -3.09 ± 0.38
76 | UCGCAGCAAUAUUACGCUUU | -3.69 ± 0.18 | -1.84 ± 0.13
77 | CCAUAGCAAUAUUACGCGGU | -3.9 ± 0.23 | -2.5 ± 0.26
78 | UUGGAGCAAUAUUACGUUAU | -2.79 ± 0.28 | -0.885 ± 0.26
79 | CCAAAGCAAUAUUACGCCGC |  | -2.58 ± 0.38
